# According to patent US20060223055A1:
# Target: in vitro translated 35S-labeled Brd4-CTD (human) (UniProt O60885)
row,Substance,percent of Brd4 bound compared to wild type E2
1,GST-tagged HPV16 E2 W33A (from UniProt P03120 1-365),< 20%
2,GST-tagged HPV16 E2 W134A (from UniProt P03120 1-365),< 20%
3,GST-tagged HPV16 E2 R37A (from UniProt P03120 1-365),< 20%
4,GST-tagged HPV16 E2 W92A (from UniProt P03120 1-365),< 20%

# Target: His-Xpress-SV40NLS-HBrd41047-1362 (human) (UniProt O60885)
row,Substance,percent of wild type E2 binding
1,"HPV16 E2 Y138A (pCMV4-16E2 mutant, expressed in C33A cells) (from UniProt P03120 1-365)",> 40%
2,"HPV16 E2 W92A (pCMV4-16E2 mutant, expressed in C33A cells) (from UniProt P03120 1-365)",< 10%
3,"HPV16 E2 F121A (pCMV4-16E2 mutant, expressed in C33A cells) (from UniProt P03120 1-365)",> 40%
4,"HPV16 E2 Y178A (pCMV4-16E2 mutant, expressed in C33A cells) (from UniProt P03120 1-365)",> 40%
5,"HPV16 E2 R37A (pCMV4-16E2 mutant, expressed in C33A cells) (from UniProt P03120 1-365)",< 10%
6,"HPV16 E2 K68A (pCMV4-16E2 mutant, expressed in C33A cells) (from UniProt P03120 1-365)",> 40%
7,"HPV16 E2 L79A (pCMV4-16E2 mutant, expressed in C33A cells) (from UniProt P03120 1-365)",> 40%
8,"HPV16 E2 W33A (pCMV4-16E2 mutant, expressed in C33A cells) (from UniProt P03120 1-365)",< 10%
9,"HPV16 E2 E90A (pCMV4-16E2 mutant, expressed in C33A cells) (from UniProt P03120 1-365)",> 40%
10,"HPV16 E2 T93A (pCMV4-16E2 mutant, expressed in C33A cells) (from UniProt P03120 1-365)",> 40%
11,"HPV16 E2 E39A (pCMV4-16E2 mutant, expressed in C33A cells) (from UniProt P03120 1-365)",> 40%
12,"HPV16 E2 D122A (pCMV4-16E2 mutant, expressed in C33A cells) (from UniProt P03120 1-365)",> 40%
